Data from the supplement of paper PMC12764529.
± gives the half width of the 95% confidence interval.

Experiment: folding stability dG unfold from chymotrypsin proteolysis; higher = more stable
Description: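 Folding stability of de novo designed mini-proteins (<80 aa, no Cys; designed by TrROS, TrMRF, ProteinMPNN and the joint model) was measured by cDNA display proteolysis with trypsin and chymotrypsin. Each protease was used at 11 concentrations in a threefold dilution series plus a no-protease condition. K50 was inferred by Bayesian fitting of sequencing counts, and dG unfold was derived against a sequence-predicted unfolded-state K50 (Tsuboyama et al. method). Sequences shown include variable-length N-terminal GS-type padding (SAGGSAGG...) inside a display construct carrying a PA tag. Rows were kept only if the AF2 dimer inter-PAE was >15, to exclude likely homo-oligomers.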
For “SAGGSAGGSAGGPMYTVHTETFTTLEPGAGKRIVTTRTTNPATGATATTTTVIPLEPEALSAGGSAGGSAGG [r17_153_JUSTAS]”, the “folding stability dG unfold” value was -0.555 ± 0.39 kcal/mol.
With “SMVIPSSLGFEPALERVRALLPPERRYVVTELDPATGETTTATYDPATGTVTTTATPSAAGPPYVVVEVVSA [r9_1059_JUSTAS]” the “folding stability dG unfold” value was 0.345 ± 0.064 kcal/mol.
For “SAGGSAGGGSMDPKVETEEFEEPGREVKREKLPDGLVVTEYTEPDGPKSTVVTDPETGKVTVIGSAGGSAGG [r6_159_JUSTAS]”, the “folding stability dG unfold” value was 0.653 ± 0.079 kcal/mol.
For “SAGGSAGGMTIPLPGSVEEIQELLGGPIKEYTEEAPGSGTLTLPNGTPITVERESPELLKEVLRSAGGSAGG [r6_19_JUSTAS]”, the “folding stability dG unfold” value was -0.0581 ± 0.16 kcal/mol.
With “SMNVTEEVTVEELPSGEVLTETVVTEPSGVTTVTTTLASPPDRPVVETRTTTYPPDGSSTETSTVAPLPGSA [r9_1179_JUSTAS]” the “folding stability dG unfold” value was 0.507 ± 0.054 kcal/mol.
With “SAGGTATVEAALAALPADLPRGSLALHPETGLVEPLEPSPEDAVAYPVNPATGERYPLRVEADAVRLLSAGG [r13_803_JUSTAS]” the “folding stability dG unfold” value was 0.461 ± 0.079 kcal/mol.
For “SAGGSAGGSAGGSKLKEGEKYKVYFKKTKKELEVETLEQLKALEKAGKKVEIVKIEKVPSAGGSAGGSAGGS [r4_214_TrROS_Hall]”, the “folding stability dG unfold” value was 0.153 ± 0.21 kcal/mol.
With “SAGGSAMVVPVASEEEARAVAEEAAARGEPVVIAFPGGRALVVETAAAPTPEPVLRVEEREVPPLLSAGGSA [r15_761_JUSTAS]” the “folding stability dG unfold” value was 0.744 ± 0.0083 kcal/mol.
In the case of “SAGGSAGGSAGGSATVTTTTTSGATITPPALTELPSGYVAVVTPTGDTLNVVIAPKALLSAGGSAGGSAGGS [r4_279_JUSTAS]”, the “folding stability dG unfold” value is reported as 0.214 ± 0.26 kcal/mol.
With “SAGDLGEEALKDITENSTPVSPNETRTTTAVIKYKDKLVKITTTVKVPPESGTTVLSTPIEIFSPEELKSAG [r5_96_JUSTAS]” the “folding stability dG unfold” value was -0.118 ± 0.33 kcal/mol.
In the case of “SAGGSAGGSAGGAKPVTFTFPDGTKAVSVEETPTSVVLYDPGPGALYVLDKETKTITPASAGGSAGGSAGGS [r10_289_TrMRF]”, the “folding stability dG unfold” value is reported as -0.512 ± 0.29 kcal/mol.
With “SAGGSAGMVVEPREVVIKLKPPNGPETTLEVELVEVEPDSLVLRNGDTPIVLPPDAEDVEILEVTGSAGGSA [r15_510_JUSTAS]” the “folding stability dG unfold” value was 0.401 ± 0.088 kcal/mol.
With “SAGGSAGGSAGMPLEELAQEALNQFQENGEPVEIDIEVETPNGEYFPFEVEINGDGLKIRSAGGSAGGSAGG [r11_954_TrROS]” the “folding stability dG unfold” value was 0.455 ± 0.068 kcal/mol.
In the case of “SAGGSAGGSPKPKRRTIEFPLKVPPGMSPEDVADELKQQPGFEIDEIDEVDPDEGWVKISVELSAGGSAGGS [r12_712_TrROS]”, the “folding stability dG unfold” value is reported as -0.377 ± 0.13 kcal/mol.
With “SAGGSAMTEEEFETEFSDPNNSLSTKVKTTRYLEGDTPVVKTTYTTEDPNTGSTYTTEKVTVIPKKSAGGSA [r15_960_JUSTAS]” the “folding stability dG unfold” value was -0.218 ± 0.18 kcal/mol.
For “SAGGSAGGSAGGSMKSVPVITTTTTVLPNGTTVTTTTVNNVTSSGTTSSTTTTVTPSLLSAGGSAGGSAGGS [r4_486_JUSTAS]”, the “folding stability dG unfold” value was -0.571 ± 0.15 kcal/mol.
With “SAGGSAGGNPDTPVLTRKTSETFNIAPGEVVKFPDSSVVTPTEDGTYTIDKTITYNGPPDKPLTSAGGSAGG [r6_635_JUSTAS]” the “folding stability dG unfold” value was 0.345 ± 0.13 kcal/mol.
With “SAGGSAGGSARTVPPDLLVRVETPDEERIVPVSELDAFFARHPDVPWRDITVVDPATGAARSAGGSAGGSAG [r3_134_JUSTAS]” the “folding stability dG unfold” value was 0.539 ± 0.11 kcal/mol.
For “SAGMPLPVKLVSFEPGANTLTIDRPYTNGPVTLSPDGTLTITGTLRDENGKPLETFTETIPVNWPEGTRSAG [r5_475_JUSTAS]”, the “folding stability dG unfold” value was -0.24 ± 0.14 kcal/mol.
For “SAGGMKIIKELYDKLPPEVKYFSVPFHYPTGKVEPVKPSPTLSMFEPFNPETGEVDRFVVYRDKIEPLSAGG [r13_803_TrMRF]”, the “folding stability dG unfold” value was 0.0804 ± 0.18 kcal/mol.
With “SADKVIIPFDSPEEIKGIIKEARKAGIPGKEIVIWSEDDWMYKIEVDPNKGNVEIEPVMPPEDLNDEMPSAG [r14_913_TrROS]” the “folding stability dG unfold” value was 0.629 ± 0.048 kcal/mol.
With “SAGGSMSTTLPDGGKVTVYSDPNKPLTLVEVELPDRRLVVLRPVSAPEDGTIVAPVEVRPLEEVEEASAGGS [r16_85_JUSTAS]” the “folding stability dG unfold” value was -0.0108 ± 0.18 kcal/mol.
In the case of “SAGGSAGGSAGGSGSTTPIPATGATLTTETLPDGSPLYTLTDPATGATTTYPPGAPVGLSAGGSAGGSAGGS [r4_158_JUSTAS]”, the “folding stability dG unfold” value is reported as -0.26 ± 0.07 kcal/mol.
For “SAGGSAITLEDIRNMPIEEIAKEMQDHFPNGQKQPIEFEYPDGRKLRIKAEYPPNGEPKIDIEPVDSAGGSA [r15_857_TrROS]”, the “folding stability dG unfold” value was 0.139 ± 0.14 kcal/mol.
For “SAGGPAGEEVPVRITARIYMPDPDGKMHSHEIPIDIPMPVDELKEKLIKEIMDEHGYHITEIDIEPYSAGGS [r16_511_TrROS]”, the “folding stability dG unfold” value was -0.432 ± 0.21 kcal/mol.
In the case of “SAGGPIKRDPDGKIEIHYNEDNGRWHVKIRDPGKPKKEREFKSPDDANEFAKSFANDGWKIDKVEPYPSAGG [r13_727_TrROS]”, the “folding stability dG unfold” value is reported as 1.08 ± 0.25 kcal/mol.
With “SAGGGSMVVEKPVALPPDTDVEEVAKEVAEELFPEDEKYKIEVERYPDSVRITVYDPKNGKPVIETVDSAGG [r13_724_JUSTAS]” the “folding stability dG unfold” value was -0.565 ± 0.45 kcal/mol.
In the case of “SAGGKPGEPVKIKMRGPDGQPMTFPFYAPEPVKIKMNNPGEEHEHTIPPGEPLTFPLPPGDIEVEPVSAGGS [r16_456_TrROS]”, the “folding stability dG unfold” value is reported as 0.315 ± 0.2 kcal/mol.
In the case of “SAGGSGDSMLVPVSESTSSYPPSGIVRSTKTILDPKKGGIITETTTTTLTPDGNPLSTTPSTTVKESAGGSA [r2_253_JUSTAS]”, the “folding stability dG unfold” value is reported as 0.344 ± 0.032 kcal/mol.
With “SAGGSAGGSAGPWVPIAPGPNGMWIWAEPDPDKFTIRMFPMSPDGKIPDVQEHEIPPEDFSAGGSAGGSAGG [r11_88_TrROS]” the “folding stability dG unfold” value was 0.156 ± 0.22 kcal/mol.
With “SAGGSAGGSAGGMPPVEIVEIVNSPGKNPVIVLDPATGEPRLIEVPPDVTLTPEMARRESAGGSAGGSAGGS [r10_844_JUSTAS]” the “folding stability dG unfold” value was 0.838 ± 0.066 kcal/mol.
With “SAPMTPAERARPRIKKLVNLLAEDGNFKVDIERDPGDPGVVVTIKLDPNSREKFAERLGIPRDELYDLISAG [r14_688_TrROS]” the “folding stability dG unfold” value was -0.0457 ± 0.23 kcal/mol.
For “SAMTISVSETPDTGSLTVPMTLEPDTVEEVVEEVAKEIAPEEAEVSIEVTEVVPHPDSVTVTAKITVRPSAG [r14_345_JUSTAS]”, the “folding stability dG unfold” value was 0.361 ± 0.041 kcal/mol.
With “SAGGSAGGSASLSLDQVGTVTFPANGAPALVTRLPDGSVALYFPATGRVLYLDGPNDVTPDSAGGSAGGSAG [r3_96_TrMRF]” the “folding stability dG unfold” value was 0.97 ± 0.059 kcal/mol.
For “SAGGSAGGSMTITIKLDNVKEVEVKFNPETNVVEIKVKVDGKEYVIRMEFVDGKIYITEIKPLSAGGSAGGS [r20_60_TrROS_Hall]”, the “folding stability dG unfold” value was 3.68 ± 0.34 kcal/mol.
In the case of “SAGGLTTQETVSLTSPTNVALTVLSTSVTLSPSTRTLSYTVQGPDGTVTTETVVTPAPLPELDPSAGSAGGS [r16_132_JUSTAS]”, the “folding stability dG unfold” value is reported as 0.346 ± 0.15 kcal/mol.
In the case of “SAGGSAGGMTPEEIRDALAAKLRAADPDVEVRPVRQEGDEVVVVVTRPATGERREVRVPADVPLSAGGSAGG [r6_446_JUSTAS]”, the “folding stability dG unfold” value is reported as 0.406 ± 0.19 kcal/mol.
For “SAGGSAGSVPSIVIESYDPEKGIVTVSYPATGATYTVEVPPGSTSLTVTVTDADGTPRTFTFPLPGSAGGSA [r2_132_JUSTAS]”, the “folding stability dG unfold” value was 5.31 ± 0.1 kcal/mol.
For “SAGGSAGGSAGEVLIVAPAALLKEAIGPGVEVLAVDDDVVVVRVPVPPVPLTDANGNPLPSAGGSAGGSAGG [r11_828_TrMRF]”, the “folding stability dG unfold” value was 0.598 ± 0.047 kcal/mol.
For “SAGGSAGGSLRPDEEVVAILPNGEKVPFKVESVEVSPDGSVKANLTLPGGKSLGPANLVFKPESAGGSAGGS [r12_735_TrMRF]”, the “folding stability dG unfold” value was -0.00357 ± 0.078 kcal/mol.
With “SAGGSAGGMTARKTYEVEVPADDPDALADLAFDLPAGDTVYFRTPGPDLRAVVTDDVPVVEPAGSAGGSAGG [r6_550_TrMRF]” the “folding stability dG unfold” value was 0.0243 ± 0.18 kcal/mol.
For “SAGGSAGGSKKWIPIDSPSEIEDLLEKAPPGGKLKIYNNNGQTEKVPPNEIERTPNHWWIEVDSAGGSAGGS [r12_907_TrROS]”, the “folding stability dG unfold” value was 0.314 ± 0.17 kcal/mol.
In the case of “SAGGSAGGSAGGSSSMVEVEVESEEELEAYLEPLAARGVEVTLTSRDPETGRWLLRVTPPSAGGSAGGSAGG [r7_964_JUSTAS]”, the “folding stability dG unfold” value is reported as 0.233 ± 0.2 kcal/mol.
With “SAGGSAGGSAGGWIVRIEHGGKERMFQFDSPEEIKDQIRPMFPNGKKVKVEVMPPDDLKSAGGSAGGSAGGS [r10_1167_TrROS]” the “folding stability dG unfold” value was -0.0912 ± 0.16 kcal/mol.
In the case of “SAGGSAGGSAGYPPVPPAVVQAVVDELPRLGYTPKAVVVGEGPDLPFVLVVADDKVLLVRGSAGGSAGGSAG [r3_395_TrMRF]”, the “folding stability dG unfold” value is reported as 0.524 ± 0.096 kcal/mol.
With “SGMEEIKIEVLSTETDESGTTYTETKIVLPDGKVIEATMTTTTVPDAAGNPVAVETLTLKDKTYTRTIPLSA [r9_271_JUSTAS]” the “folding stability dG unfold” value was 0.448 ± 0.12 kcal/mol.
With “SAGGSAKRVAFIGGGPEIEKVIKEAEKNGFEAVPFDGTPDEFLDALKKNFPDVKQIVFPDGKVLDASAGGSA [r15_712_TrMRF]” the “folding stability dG unfold” value was 0.192 ± 0.13 kcal/mol.
